Consider two substances from PMC9927946.

For the test, the target named is 2P-IRS-1 (bisphosphorylated IRS-1 peptide), labeled with Cy5. Kind of test: MST; Monolith NT.115; 100 nM Cy5-labeled 2P-IRS-1, unlabeled protein serially diluted; 25 °C; n=3.

Turning to “NEDD8-SHP2 conjugation (SHP2 neddylated in the in vitro neddylation assay) (from UniProt Q06124 1-593; Q15843 1-76) (complex)”, the Kd was more than 1000 µM.

As to “SHP2 WT recombinant protein (Src homology region 2-containing protein tyrosine phosphatase 2) (from UniProt Q06124 1-593) (enzyme)”, the dissociation constant Kd is 473 µM.
